± gives the standard deviation of the averaged measurements.
Each sequence was assayed on ATP (assay: switch fluorescence ratio, 500 uM ATP over buffer (Cy3 cluster intensity, sum of 5 cycles each) (fold (ratio)); higher = stronger signal-on switching upon ATP binding; sequences stand for … in TCGTCGGCAGCGTCAGATGTGTATAAGAGACAGTTTTTTTTTTTTTTTTTTTTTTTTT…TC). Conditions: aptamer strand: ATP DNA aptamer (quencher-CACCTGGGGGAGTATTGCGGAGGAAGG + anchor), 100 nM annealed; ATP concentration: 500 uM.
In short: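 Exposure to 500 uM ATP lasted 15 min at 22 °C before imaging, and a selection-buffer image was taken beforehand, for Cy3-labelled switching-strand clusters on a modified Illumina MiSeq flow-cell annealed to 100 nM quencher-labelled ATP aptamer. Five buffer/ATP cycles were run with NaOH stripping and re-annealing between them. The fluorescence ratio per cluster is summed target-cycle over summed buffer-cycle Cy3 intensity, averaged per switch-domain sequence. Clusters outside 100-1000 RFU were excluded.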
CGATTAACTC was tested, and the switch fluorescence ratio was 1.03 ± 0.012. For CGATTAGGGA, the switch fluorescence ratio was 1 ± 0.028. CGATTAGGTG gave a switch fluorescence ratio of 1.193 ± 0.0052. CGATTAGTTA was tested, and the switch fluorescence ratio was 0.998 ± 0.023. For CGATTATCTT, the switch fluorescence ratio was 1.01 ± 0.011. With CGATTATGTA the switch fluorescence ratio was 0.9667 ± 0.0078. CGATTCAACG gave a switch fluorescence ratio of 1.02 ± 0.012. CGATTGGAGT gave a switch fluorescence ratio of 0.9864 ± 0.0058. CGATTGGGGC gave a switch fluorescence ratio of 0.992 ± 0.013. CGATTGGGTC was tested, and the switch fluorescence ratio was 0.999 ± 0.013. Sequence CGATTGTGGG has a switch fluorescence ratio of 0.9962 ± 0.0092. CGATTTAGAG showed a switch fluorescence ratio of 0.988 ± 0.019. With CGATTTAGCT the switch fluorescence ratio was 0.988 ± 0.037. CGATTTCCTA gave a switch fluorescence ratio of 0.987 ± 0.015. Work on CGCACGAGGC yielded a switch fluorescence ratio of 1.23 ± 0.05. Work on CGCAGCCAGG yielded a switch fluorescence ratio of 3.33 ± 0.27. CGCATAGCTT showed a switch fluorescence ratio of 1.12 ± 0.021. For CGCATCGTAA, the switch fluorescence ratio was 1.074 ± 0.0044. In the case of CGCATGGAGT, the switch fluorescence ratio is reported as 1.04 ± 0.015. Work on CGCATGGCCT yielded a switch fluorescence ratio of 1.04 ± 0.072. CGCATGTAAC was tested, and the switch fluorescence ratio was 3.43 ± 0.81. CGCATGTTTT was tested, and the switch fluorescence ratio was 1.06 ± 0.1. CGCATTGGGG gave a switch fluorescence ratio of 1.13 ± 0.037. CGCATTGTGA showed a switch fluorescence ratio of 1.02 ± 0.063. For CGCCAAATG, the switch fluorescence ratio was 1.033 ± 0.0019. CGCCAACAAC gave a switch fluorescence ratio of 1.78 ± 0.036. Sequence CGCCAGGGGA has a switch fluorescence ratio of 1.43 ± 0.59. With CGCCGAAGGG the switch fluorescence ratio was 0.98523 ± 0.00014. In the case of CGCCGGACAT, the switch fluorescence ratio is reported as 1.04 ± 0.0027. For CGCCGGGGAT, the switch fluorescence ratio was 1.004 ± 0.002. Sequence CGCCGGTTGG has a switch fluorescence ratio of 0.997 ± 0.014. For CGCCGTCTCA, the switch fluorescence ratio was 1.02 ± 0.042. For CGCCGTTGCG, the switch fluorescence ratio was 0.989 ± 0.065. CGCCTAACGA was tested, and the switch fluorescence ratio was 1.08 ± 0.024. With CGCCTGACAC the switch fluorescence ratio was 1.26 ± 0.0035. For CGCCTTTACA, the switch fluorescence ratio was 1.02 ± 0.029. Sequence CGCCTTTACC has a switch fluorescence ratio of 1.18 ± 0.013. Sequence CGCGACAACA has a switch fluorescence ratio of 0.999 ± 0.031. With CGCGAGAATA the switch fluorescence ratio was 1.01 ± 0.084. CGCGAGATAT was tested, and the switch fluorescence ratio was 1.03 ± 0.043. For CGCGAGGACT, the switch fluorescence ratio was 1.27 ± 0.11. Work on CGCGATCTGT yielded a switch fluorescence ratio of 1.18 ± 0.046. Sequence CGCGCCGGGC has a switch fluorescence ratio of 1.03 ± 0.057. CGCGCCTATC showed a switch fluorescence ratio of 1.11 ± 0.02. In the case of CGCGCTACTT, the switch fluorescence ratio is reported as 1.73 ± 0.039. With CGCGGAACTG the switch fluorescence ratio was 1.09 ± 0.016. With CGCGGACACG the switch fluorescence ratio was 1.01 ± 0.048. CGCGGGAAAA gave a switch fluorescence ratio of 1.01 ± 0.099. CGCGGGAATG showed a switch fluorescence ratio of 1.05 ± 0.033. CGCGGGGGGG showed a switch fluorescence ratio of 1 ± 0.025. Sequence CGCGGTGTCC has a switch fluorescence ratio of 1.02 ± 0.011. CGCGTCAACG gave a switch fluorescence ratio of 1.01 ± 0.027. CGCGTCATGA showed a switch fluorescence ratio of 1.02 ± 0.0043. In the case of CGCGTCTGGG, the switch fluorescence ratio is reported as 1.01 ± 0.042. CGCGTGATGG was tested, and the switch fluorescence ratio was 1 ± 0.021. CGCGTGATTT gave a switch fluorescence ratio of 1.06 ± 0.058. In the case of CGCGTGGCTG, the switch fluorescence ratio is reported as 1 ± 0.019. Sequence CGCGTGGGGG has a switch fluorescence ratio of 1.03 ± 0.081. For CGCGTTGTTG, the switch fluorescence ratio was 1.03 ± 0.012. In the case of CGCTAATTGG, the switch fluorescence ratio is reported as 1.09 ± 0.014. With CGCTACGGTT the switch fluorescence ratio was 1.042 ± 0.0016. Sequence CGCTAGGGTG has a switch fluorescence ratio of 1.115 ± 0.0032. Sequence CGCTAGGTGT has a switch fluorescence ratio of 2.33 ± 0.76. CGCTATATGG was tested, and the switch fluorescence ratio was 1.32 ± 0.047. CGCTCATTTG was tested, and the switch fluorescence ratio was 0.97 ± 0.016. For CGCTCTAATA, the switch fluorescence ratio was 1.058 ± 0.01. Work on CGCTGAATTT yielded a switch fluorescence ratio of 0.975 ± 0.03. For CGCTGAGTGC, the switch fluorescence ratio was 1.08 ± 0.034. In the case of CGCTGGATGG, the switch fluorescence ratio is reported as 0.985 ± 0.0075. Work on CGCTGGGGGC yielded a switch fluorescence ratio of 1.03 ± 0.016. Work on CGCTGGTGGG yielded a switch fluorescence ratio of 1.01 ± 0.029. For CGCTGTATCG, the switch fluorescence ratio was 0.996 ± 0.043. In the case of CGCTGTCACG, the switch fluorescence ratio is reported as 1.0556 ± 0.00068. Sequence CGCTTAAAGT has a switch fluorescence ratio of 1.03 ± 0.05. Sequence CGCTTAGATT has a switch fluorescence ratio of 0.997 ± 0.025. CGCTTCCGGG showed a switch fluorescence ratio of 1.37 ± 0.059. For CGCTTCGGTT, the switch fluorescence ratio was 0.963 ± 0.032. With CGCTTCTGGG the switch fluorescence ratio was 0.98 ± 0.011. In the case of CGCTTGAAAT, the switch fluorescence ratio is reported as 1.05 ± 0.018. Work on CGCTTGTTCG yielded a switch fluorescence ratio of 1.01 ± 0.027. For CGCTTTCTTT, the switch fluorescence ratio was 1.03 ± 0.041. With CGCTTTGATA the switch fluorescence ratio was 0.991 ± 0.03. Work on CGGAAACAAA yielded a switch fluorescence ratio of 1.01 ± 0.075. CGGAAACGTG showed a switch fluorescence ratio of 1.01 ± 0.028. CGGAACAGCA gave a switch fluorescence ratio of 1.08 ± 0.051. For CGGAAGCGGG, the switch fluorescence ratio was 1.02 ± 0.038. CGGAAGGAAG gave a switch fluorescence ratio of 0.946 ± 0.036. In the case of CGGAAGGGAG, the switch fluorescence ratio is reported as 0.996 ± 0.015. In the case of CGGAAGTGTG, the switch fluorescence ratio is reported as 0.981 ± 0.039. Work on CGGAAGTTAT yielded a switch fluorescence ratio of 1.01 ± 0.04. With CGGAATATGG the switch fluorescence ratio was 1.0484 ± 0.001. In the case of CGGAATTTCC, the switch fluorescence ratio is reported as 1.09 ± 0.048. Work on CGGACACTTT yielded a switch fluorescence ratio of 1.019 ± 0.0091. With CGGACAGGAG the switch fluorescence ratio was 0.98 ± 0.051. Work on CGGACCAAGG yielded a switch fluorescence ratio of 1 ± 0.077. CGGACCATTT showed a switch fluorescence ratio of 1.04 ± 0.024. With CGGACTAGCG the switch fluorescence ratio was 0.944 ± 0.032. Work on CGGAGAGAGC yielded a switch fluorescence ratio of 0.993 ± 0.011. Work on CGGAGATGGC yielded a switch fluorescence ratio of 1.05 ± 0.038. For CGGAGCGCGT, the switch fluorescence ratio was 0.991 ± 0.019. With CGGAGGAGCA the switch fluorescence ratio was 0.968 ± 0.061. In the case of CGGAGGCGGT, the switch fluorescence ratio is reported as 1.02 ± 0.047. In the case of CGGAGGGAGG, the switch fluorescence ratio is reported as 0.928 ± 0.091. With CGGAGGGTAC the switch fluorescence ratio was 1.61 ± 0.08. CGGAGTGGGG showed a switch fluorescence ratio of 1.01 ± 0.012. CGGAGTTTTG was tested, and the switch fluorescence ratio was 1.01 ± 0.027. In the case of CGGATACGCC, the switch fluorescence ratio is reported as 1.09 ± 0.028. CGGATATGGT gave a switch fluorescence ratio of 1 ± 0.013. CGGATGCGGT showed a switch fluorescence ratio of 1.013 ± 0.0075. In the case of CGGATGGGGG, the switch fluorescence ratio is reported as 1.01 ± 0.046. Work on CGGATGGGTG yielded a switch fluorescence ratio of 0.996 ± 0.021. In the case of CGGATGGTCA, the switch fluorescence ratio is reported as 1.013 ± 0.0099. CGGATGTTAT was tested, and the switch fluorescence ratio was 0.9626 ± 0.0096. For CGGATTAGGG, the switch fluorescence ratio was 1 ± 0.022. CGGATTCCCC gave a switch fluorescence ratio of 1.06 ± 0.011. For CGGATTCGAG, the switch fluorescence ratio was 0.98 ± 0.035. Work on CGGATTGGGA yielded a switch fluorescence ratio of 1.002 ± 0.0026. Work on CGGATTTGGG yielded a switch fluorescence ratio of 0.957 ± 0.067. In the case of CGGCAACGGT, the switch fluorescence ratio is reported as 1.01 ± 0.011. For CGGCAAGTGC, the switch fluorescence ratio was 2.19 ± 1. Work on CGGCAGTATG yielded a switch fluorescence ratio of 1.02 ± 0.011. In the case of CGGCAGTGTG, the switch fluorescence ratio is reported as 1.01 ± 0.048. For CGGCATAGAT, the switch fluorescence ratio was 1.04 ± 0.029. Sequence CGGCATGAGG has a switch fluorescence ratio of 0.972 ± 0.018. CGGCCAACGC was tested, and the switch fluorescence ratio was 1.17 ± 0.028. CGGCCATCGG showed a switch fluorescence ratio of 0.9978 ± 0.0049. Work on CGGCCGAGAG yielded a switch fluorescence ratio of 1.02 ± 0.018. In the case of CGGCCGAGGA, the switch fluorescence ratio is reported as 0.978 ± 0.01. Sequence CGGCCGGGGA has a switch fluorescence ratio of 1.14 ± 0.19. CGGCCGTACG showed a switch fluorescence ratio of 1.01 ± 0.019. CGGCCTGTTG was tested, and the switch fluorescence ratio was 1.01 ± 0.026. In the case of CGGCGAATAT, the switch fluorescence ratio is reported as 1.024 ± 0.0011. CGGCGATCGC gave a switch fluorescence ratio of 1.04 ± 0.011. CGGCGATGGG gave a switch fluorescence ratio of 1.11 ± 0.069. CGGCGGGCTT showed a switch fluorescence ratio of 1.02 ± 0.018. With CGGCGGGTTT the switch fluorescence ratio was 1.02 ± 0.049. In the case of CGGCGTGTTT, the switch fluorescence ratio is reported as 1.052 ± 0.0087. CGGCTAAAGA gave a switch fluorescence ratio of 0.976 ± 0.011. Sequence CGGCTCCCGC has a switch fluorescence ratio of 1.046 ± 0.0084. Work on CGGCTGAATT yielded a switch fluorescence ratio of 1 ± 0.003. In the case of CGGCTGGTGG, the switch fluorescence ratio is reported as 1.02 ± 0.016. With CGGCTGTACG the switch fluorescence ratio was 1.07 ± 0.022. CGGCTTACTT showed a switch fluorescence ratio of 1.07 ± 0.011. Sequence CGGCTTGGTG has a switch fluorescence ratio of 0.996 ± 0.048. Sequence CGGCTTTCCC has a switch fluorescence ratio of 1.01 ± 0.028. CGGCTTTGGA showed a switch fluorescence ratio of 1.056 ± 0.0019. With CGGGAAATAG the switch fluorescence ratio was 1.06 ± 0.02. CGGGAAGGCC gave a switch fluorescence ratio of 0.98791 ± 0.00011. For CGGGAATCCT, the switch fluorescence ratio was 1.11 ± 0.04. Sequence CGGGAATTAA has a switch fluorescence ratio of 0.997 ± 0.03. CGGGAATTAG showed a switch fluorescence ratio of 1.01 ± 0.035. In the case of CGGGACGGGC, the switch fluorescence ratio is reported as 1.04 ± 0.043. Work on CGGGAGAGTT yielded a switch fluorescence ratio of 0.996 ± 0.065.

— the supplement of paper PMC10126150
